Each block holds one molecule with its values, some of them ahead of it.
Experiments:
[1] = molecular target: HDAC9-FLAG (Homo sapiens, UniProt Q9UKV0); conditions: FLUOR DE LYS substrate; TSA 1 μM (FIG. 7), preincubated 15 minutes at room temperature; SAHA concentration not given
[2] = molecular target: T1, HDAC9a-FLAG (Homo sapiens, UniProt Q9UKV0); test: HDAC enzymatic assay, 3H-acetic acid released from 3H-histones; assay type: biochemical; set-up: made in house; host or cells: human kidney 293T cells, transient transfection, anti-FLAG M2 agarose immunoprecipitation, elution with FLAG peptide; conditions: 3H-histones substrate; SAHA 2 μM (FIG. 8); preincubated 30 minutes at 4° C.
Protocol: The reaction was stopped by the addition of 1M HCl/0.1 acetic acid. Released ^3H-acetic acid was extracted with ethyl acetate and quantified by scintillation counting. For inhibition studies, the immunoprecipitated complexes were preincubated with the different HDAC inhibitors for 30 minutes at 4° C.

[3] = molecular target: T1, HDAC9a-FLAG; conditions: FLUOR DE LYS substrate; TSA 1 μM (FIG. 7), preincubated 15 minutes at room temperature; SAHA concentration not given
[4] = tested on: MEF2C mediated transcriptional activation; test: p3XMEF2-luciferase reporter assay in 293T cells; assay type: cell-based, human; conditions: p3XMEF2-Luc; for repression of MEF2C mediated transcriptional activation: 1 ng, 10 ng, or 100 ng of plasmid; for MEF2C mediated transcriptional activation at the 100 ng dose: 100 ng plasmid
Protocol: It was then determined whether HDAC9 and HDAC9a repress MEF2-mediated transcription. This determination was carried out as follows. The p3XMEF2-luciferase reporter gene (100 ng) and the vector pRL-TK (Promega) (5 ng) were co-transfected into 293T cells in the absence (pcDNA3 empty vector) or presence of MEF2C (100 ng of pCMV-MEF2C). HDAC9-F (1 ng, 10 ng, or 100 ng of pFLAG-HDAC9; pFLAG-HDAC9 and HDAC9-FLAG are different constructs, with the FLAG sequence located at opposite ends of the HDAC9 nucleotide, but are functionally equivalent) or HDAC9a-F (1 ng, 10 ng, or 100 ng of pFLAG-HDAC9a; pFLAG-HDAC9a and HDAC9a-FLAG are different constructs, with the FLAG sequence located at opposite ends of the HDAC9a nucleotide, but are functionally equivalent) was included in a subset of experimental groups with the MEF2C vector. pFLAG empty vector was used to adjust the DNA to an equal amount in each transfection. The cells were harvested 24 to 36 hours after transfection and the luciferase activities were measured using the Dual-Luciferase™ Reporter Assay System from Promega according to the manufacturer's instruction. The firefly luciferase activity was first normalized to the co-transfected Renilla luciferase activity (encoded by the pRL-TK vector), and the luciferase activity value for cells transfected with MEF2C alone was set at 1. MEF2C activated transcription over 30 times the basal level of transcription. […] The transcriptional repression effect of HDAC9 and HDAC9a on MEF2C mediated transcription was a specific effect since a co-transfected reporter gene for transfection efficiency containing a TK promoter was not repressed by HDAC9 or HDAC9a.

[5] = HDAC enzymatic activity of immunoprecipitated HDAC9/HDAC9a compared with HDAC4; assay type: biochemical; conditions: comparable amount of protein; immunoprecipitated from 293T cells
[6] = tested on: MEF2; test: Anti-FLAG immunoprecipitation and anti-MEF2 Western blot; assay type: binding, human; conditions: 293T cells, anti-FLAG IP, anti-MEF2 Western
Protocol: The Xenopus homolog of HDRP, MITR, was identified as a MEF2 interacting transcriptional repressor (Sparrow et al., EMBO J. 18:5085-5098(1999)) and mouse HDRP also interacts with and represses MEF2 mediated transcription (Zhang et al., J. Biol. Chem. 276:35-39 (2001)). […] 293 cells were transfected with vector, HDAC9-FLAG, or HDAC9a-FLAG. […] Western blot analysis of the immunoprecipitated proteins was carried out, using anti-MEF-2 antibody to probe the blot.

inhibition of HDAC9 deacetylase activity [1]: completely inhibited
inhibition of histone deacetylase activity of HDAC9a-FLAG [2]: completely inhibited
inhibition of HDAC9a deacetylase activity [3]: completely inhibited
Molecule: O=C(CCCCCCC(=O)Nc1ccccc1)NO [SAHA, suberoylanilide hydroxamic acid]

B1: HDAC9: novel class II histone deacetylase, 1011 amino acids (SEQ ID NO: 2); tested as FLAG-tagged protein (protein, listed as Homo sapiens)
chain: MHSMISSVDVKSEVPVGLEPISPLDLRTDLRMMMPVVDPVVREKQLQQELLLIQQQQQIQKQLLIAEFQKQHENLTRQHQAQLQEHIKELLAIKQQQELLEKEQKLEQQRQEQEVERHRREQQLPPLRGKDRGRERAVASTEVKQKLQEFLLSKSATKDTPTNGKNHSVSRHPKLWYTAAHHTSLDQSSPPLSGTSPSYKYTLPGAQDAKDDFPLRKTASEPNLKVRSRLKQKVAERRSSPLLRRKDGNVVTSFKKRMFEVTESSVSSSSPGSGPSSPNNGPTGSVTENETSVLPPTPHAEQMVSQQRILIHEDSMNLLSLYTSPSLPNITLGLPAVPSQLNASNSLKEKQKCETQTLRQGVPLPGQYGGSIPASSSHPHVTLEGKPPNSSHQALLQHLLLKEQMRQQKLLVAGGVPLHPQSPLATKERISPGIRGTHKLPRHRPLNRTQSAPLPQSTLAQLVIQQQHQQFLEKQKQYQQQIHMNKLLSKSIEQLKQPGSHLEEAEEELQGDQAMQEDRAPSSGNSTRSDSSACVDDTLGQVGAVKVKEEPVDSDEDAQIQEMESGEQAAFMQQPFLEPTHTRALSVRQAPLAAVGMDGLEKHRLVSRTHSSPAASVLPHPAMDRPLQPGSATGIAYDPLMLKHQCVCGNSTTHPEHAGRIQSIWSRLQETGLLNKCERIQGRKASLEEIQLVHSEHHSLLYGTNPLDGQKLDPRILLGDDSQKFFSSLPCGGLGVDSDTIWNELHSSGAARMAVGCVIELASKVASGELKNGFAVVRPPGHHAEESTAMGFCFFNSVAITAKYLRDQLNISKILIVDLDVHHGNGTQQAFYADPSILYISLHRYDEGNFFPGSGAPNEVGTGLGEGYNINIAWTGGLDPPMGDVEYLEAFRTIVKPVAKEFDPDMVLVSAGFDALEGHTPPLGGYKVTAKCFGHLTKQLMTLADGRVVLALEGGHDLTAICDASEACVNALLGNELEPLAEDILHQSPNMNAVISLQKIIEIQSMSLKFS
modifications: FLAG tag
notes: tested as FLAG-tagged protein
repression of MEF2C mediated transcriptional activation [4]: in a dose-dependent manner
MEF2C mediated transcriptional activation at the 100 ng dose [4]: completely abolished
HDAC activity relative to the deacetylase activity of HDAC4 [5]: about ten times lower
interaction with MEF2 [6]: interacted with MEF2

B2: HDAC9a: alternatively spliced isoform of HDAC9, 879 amino acids (SEQ ID NO: 4); tested as FLAG-tagged protein (protein, listed as Homo sapiens)
chain: MHSMISSVDVKSEVPVGLEPISPLDLRTDLRMMMPVVDPVVREKQLQQELLLIQQQQQIQKQLLIAEFQKQHENLTRQHQAQLQEHIKELLAIKQQQELLEKEQKLEQQRQEQEVERHRREQQLPPLRGKDRGRERAVASTEVKQKLQEFLLSKSATKDTPTNGKNHSVSRHPKLWYTAAHHTSLDQSSPPLSGTSPSYKYTLPGAQDAKDDFPLRKTASEPNLKVRSRLKQKVAERRSSPLLRRKDGNVVTSFKKRMFEVTESSVSSSSPGSGPSSPNNGPTGSVTENETSVLPPTPHAEQMVSQQRILIHEDSMNLLSLYTSPSLPNITLGLPAVPSQLNASNSLKEKQKCETQTLRQGVPLPGQYGGSIPASSSHPHVTLEGKPPNSSHQALLQHLLLKEQMRQQKLLVAGGVPLHPQSPLATKERISPGIRGTHKLPRHRPLNRTQSAPLPQSTLAQLVIQQQHQQFLEKQKQYQQQIHMNKLLSKSIEQLKQPGSHLEEAEEELQGDQAMQEDRAPSSGNSTRSDSSACVDDTLGQVGAVKVKEEPVDSDEDAQIQEMESGEQAAFMQQPFLEPTHTRALSVRQAPLAAVGMDGLEKHRLVSRTHSSPAASVLPHPAMDRPLQPGSATGIAYDPLMLKHQCVCGNSTTHPEHAGRIQSIWSRLQETGLLNKCERIQGRKASLEEIQLVHSEHHSLLYGTNPLDGQKLDPRILLGDDSQKFFSSLPCGGLGVDSDTIWNELHSSGAARMAVGCVIELASKVASGELKNGFAVVRPPGHHAEESTAMGFCFFNSVAITAKYLRDQLNISKILIVDLDVHHGNGTQQAFYADPSILYISLHRYDEGNFFPGSGAPNEVRFISLEPHFYLYLSGNCIA
modifications: FLAG tag
notes: tested as FLAG-tagged protein
repression of MEF2C mediated transcriptional activation [4]: in a dose-dependent manner
MEF2C mediated transcriptional activation at the 100 ng dose [4]: completely abolished
HDAC activity relative to the deacetylase activity of HDAC4 [5]: about ten times lower
interaction with MEF2 [6]: interacted with MEF2
